# Reference: article PMC2063913 (The Journal of Cell Biology, 2006)
# Several values for one entry are separate records, joined by “and”; a condition that tells them apart may be missing. Identical values can stand only once. Like-named read-outs stand apart in the source and are kept apart here.
# T1: Sfi1p fragment K246-E677 (15-repeat construct) (S. cerevisiae, UniProt Q12369 246-677)
# T1 sequence (looked up): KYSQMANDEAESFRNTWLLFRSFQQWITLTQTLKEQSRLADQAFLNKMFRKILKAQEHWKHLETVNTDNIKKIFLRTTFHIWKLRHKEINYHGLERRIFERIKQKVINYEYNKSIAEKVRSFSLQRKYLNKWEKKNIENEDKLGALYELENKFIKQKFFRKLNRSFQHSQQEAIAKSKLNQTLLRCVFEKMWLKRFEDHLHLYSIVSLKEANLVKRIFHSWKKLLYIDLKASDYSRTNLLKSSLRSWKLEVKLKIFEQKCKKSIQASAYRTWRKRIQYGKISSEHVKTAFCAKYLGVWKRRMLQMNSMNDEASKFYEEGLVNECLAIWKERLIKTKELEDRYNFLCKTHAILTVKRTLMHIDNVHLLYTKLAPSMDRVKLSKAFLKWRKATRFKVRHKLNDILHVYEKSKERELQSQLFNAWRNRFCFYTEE
# B1: yeast centrin (Cdc31p) (natural protein, S. cerevisiae)
# chain: MSKNRSSLQSGPLNSELLEEQKQEIYEAFSLFDMNNDGFLDYHELKVAMKALGFELPKREILDLIDEYDSEGRHLMKYDDFYIVMGEKILKRDPLDEIKRAFQLFDDDHTGKISIKNLRRVAKELGETLTDEELRAMIEEFDLDGDGEINENEFIAICTDS
# Legend:
# yeast centrin (Cdc31p) [1] = target: B1; assay: crystal structure
# yeast centrin (Cdc31p) [2] = target: B1; assay: crystal structure; remark: listed apart in the source
# [3] = target: T1, Sfi1p fragment K246-E677 (15-repeat …); assay: native MS
binder,measurement,setting,value
"Sfi1p fragment K643-E710 (two repeats; crystal 1 construct) (domain or fragment, S. cerevisiae, UniProt Q12369 643-710, looked up) KLNDILHVYEKSKERELQSQLFNAWRNRFCFYTEECNIQAISKRNYQLEKMVLKKFRERLLEIVKSEE",binding result,yeast centrin (Cdc31p) [1],binds
"Sfi1p fragment N218-H306 (three repeats; crystal 2 construct) (domain or fragment, S. cerevisiae, UniProt Q12369 218-306, looked up) NEEANRFANQAKLRVQEAVFYIWSDKTLKYSQMANDEAESFRNTWLLFRSFQQWITLTQTLKEQSRLADQAFLNKMFRKILKAQEHWKH",binding result,yeast centrin (Cdc31p) [2],binds
B1,stoichiometry N,[3],15 and 14
